{"source": "patent US20200002405A1", "about": "(ADMINISTRATORS OF THE TULANE EDUCATIONAL FUND, published 2020)", "key": {"LCMV WE strain GP": {"biological_target": "T1, LCMV WE strain GP (LCMV, WE strain, UniProt P07399 2-498)", "T1 construct": "whole, on cells", "T1 sequence": "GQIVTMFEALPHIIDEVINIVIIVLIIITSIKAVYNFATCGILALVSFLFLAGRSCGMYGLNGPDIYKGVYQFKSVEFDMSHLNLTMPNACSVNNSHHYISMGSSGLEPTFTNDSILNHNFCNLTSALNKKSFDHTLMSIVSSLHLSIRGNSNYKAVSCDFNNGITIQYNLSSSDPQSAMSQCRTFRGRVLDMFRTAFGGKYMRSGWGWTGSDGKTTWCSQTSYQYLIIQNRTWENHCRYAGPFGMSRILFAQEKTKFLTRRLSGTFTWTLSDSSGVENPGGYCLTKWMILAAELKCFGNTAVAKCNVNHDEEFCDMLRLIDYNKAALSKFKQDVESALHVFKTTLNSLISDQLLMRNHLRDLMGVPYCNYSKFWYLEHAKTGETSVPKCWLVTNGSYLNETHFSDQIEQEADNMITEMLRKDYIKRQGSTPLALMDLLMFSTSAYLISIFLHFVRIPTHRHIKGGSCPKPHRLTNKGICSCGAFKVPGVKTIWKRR", "test": "cross-reactivity, immunofluorescence on GP-transfected 293T cells"}, "[1]": {"biological_target": "LASV A19 (lineage II) glycoprotein (Lassa virus, strain A19)", "test": "cell-based or functional assay"}, "[2]": {"biological_target": "LASV Pinneo (lineage I) glycoprotein (Lassa virus, strain Pinneo)", "test": "cell-based or functional assay"}, "[3]": {"biological_target": "LASV 237 (lineage III) glycoprotein (Lassa virus, strain 237)", "test": "cell-based or functional assay"}, "[4]": {"biological_target": "T2, LASV Josiah (lineage IV) glycoprotein, full-length GP (Lassa virus, Josiah strain, UniProt P08669 2-491)", "T2 sequence": "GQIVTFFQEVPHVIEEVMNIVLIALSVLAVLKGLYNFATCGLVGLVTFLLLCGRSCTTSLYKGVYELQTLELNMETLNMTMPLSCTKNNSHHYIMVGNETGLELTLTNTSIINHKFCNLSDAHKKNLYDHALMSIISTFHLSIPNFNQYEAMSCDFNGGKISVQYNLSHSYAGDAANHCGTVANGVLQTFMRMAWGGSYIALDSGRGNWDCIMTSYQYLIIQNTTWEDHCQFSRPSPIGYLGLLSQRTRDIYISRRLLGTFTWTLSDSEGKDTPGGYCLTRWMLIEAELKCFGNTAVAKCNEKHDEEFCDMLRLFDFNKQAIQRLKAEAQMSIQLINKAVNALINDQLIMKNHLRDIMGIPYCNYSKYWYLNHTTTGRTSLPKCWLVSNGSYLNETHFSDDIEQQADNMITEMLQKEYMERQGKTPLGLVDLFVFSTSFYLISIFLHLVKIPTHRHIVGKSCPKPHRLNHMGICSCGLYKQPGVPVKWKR", "test": "cell-based or functional assay"}, "[5]": {"biological_target": "T2, LASV Josiah (lineage IV) glycoprotein, …", "test": "cell-based or functional assay", "remark": "listed apart in the source"}}, "note": "Like-named read-outs stand apart in the source and are kept apart here.", "data": [{"binder": "37.2G (antibody, V domains shown) VH: EVQLVESGGGLVKPGGSRRLSCAASGFTFSRDTMTWVRQAPGKGLEWVASISSGSSDINYADSVKGRFTISRDNGKNSLYLHMNSLRADDTAIYYCARDPRSGISGRYGMDVWGQGTTVTVSS VL: DIVLTQSPGTLSLSPGERATLSCRASQSVNSIFLAWYQQKPGQAPRLLIYGASSRATGIPDRFSGSGSGTDFTLTISRLEPEDFAVYYCQQYHSSPKLTFGGGTKVEIKR", "values": [{"measurement": "binding result", "setting": "LCMV WE strain GP", "result": "binds"}, {"measurement": "IC50 (neutralization)", "setting": "[1]", "result": 1.1, "unit": "µg/mL"}, {"measurement": "IC80 (neutralization)", "setting": "[1]", "result": 10, "unit": "µg/mL"}, {"measurement": "IC50 (neutralization)", "setting": "[2]", "result": "> 20", "unit": "µg/mL"}, {"measurement": "IC80 (neutralization)", "setting": "[2]", "result": "> 20", "unit": "µg/mL"}, {"measurement": "IC50 (neutralization)", "setting": "[3]", "result": 2.02, "unit": "µg/mL"}, {"measurement": "IC80 (neutralization)", "setting": "[3]", "result": 5.23, "unit": "µg/mL"}, {"measurement": "IC50 (neutralization)", "setting": "[4]", "result": 5.6, "unit": "µg/mL"}, {"measurement": "IC80 (neutralization)", "setting": "[4]", "result": 16, "unit": "µg/mL"}, {"measurement": "IC50 (neutralization)", "setting": "[5]", "result": 0.405, "unit": "µg/mL"}, {"measurement": "IC80 (neutralization)", "setting": "[5]", "result": 1.78, "unit": "µg/mL"}]}, {"binder": "37.7H (antibody, V domains shown) VH: EVQLVQSGGGLVKAGGSLRLSCAASGFTFSTYSMNWIRQAPGKGLEWVASISSRSGSHINYVDSVKGRFTISRDNARDLLYLQMNSLRVDDSALYYCARDRRSGTSPLPLDVWGQGTTVTVFS VL: DQSALTQPASVSGSPGQSITISCTGTGSDIGGYNFVSWYQQYPGKAPKLIIYEVRIRASGVSNRFSGSKSGNTASLTISGLQAEDEADYYCNSYSIHSPWVFGGGTKLTVLR", "values": [{"measurement": "binding result", "setting": "LCMV WE strain GP", "result": "binds"}, {"measurement": "IC50 (neutralization)", "setting": "[1]", "result": 0.255, "unit": "µg/mL"}, {"measurement": "IC80 (neutralization)", "setting": "[1]", "result": 0.537, "unit": "µg/mL"}, {"measurement": "IC50 (neutralization)", "setting": "[2]", "result": 0.301, "unit": "µg/mL"}, {"measurement": "IC80 (neutralization)", "setting": "[2]", "result": 1.66, "unit": "µg/mL"}, {"measurement": "IC50 (neutralization)", "setting": "[3]", "result": 0.077, "unit": "µg/mL"}, {"measurement": "IC80 (neutralization)", "setting": "[3]", "result": 0.202, "unit": "µg/mL"}, {"measurement": "IC50 (neutralization)", "setting": "[4]", "result": 0.191, "unit": "µg/mL"}, {"measurement": "IC80 (neutralization)", "setting": "[4]", "result": 0.532, "unit": "µg/mL"}, {"measurement": "IC50 (neutralization)", "setting": "[5]", "result": 0.134, "unit": "µg/mL"}, {"measurement": "IC80 (neutralization)", "setting": "[5]", "result": 0.214, "unit": "µg/mL"}]}]}
